Laboratory results: patent publication US20250188136A1, “AV3 MUTANT POLYPEPTIDES FOR PEST CONTROL” (Vestaron Corporation, priority 2021, published 2025)
“Also recorded” adds a separate entry of the source. Ends that are not written are not given here.

Experiments:
houseflies = assay: Housefly injection assay (knock-down); format: in vivo, Musca domestica; conditions: for Activity: knock-down at 5 hours post-injection normalized to Av3b, Yes = insecticidal activity maintained; for housefly knock-down / insecticidal activity relative to Av3b: knock-down at 5 hours post-injection
Description: An exemplary housefly injection bioassay is as follows: conditioned media is serially diluted to generate full dose-response curves from the housefly injection bioassay. Before injection, adult houseflies (Musca domestica) are immobilized with CO2, and 12-18 mg houseflies are selected for injection. A microapplicator, loaded with a 1 cc syringe and 30-gauge needle, is used to inject 0.5 μL per fly, doses of serially diluted conditioned media samples into houseflies through the body wall of the dorsal thorax. The injected houseflies are placed into closed containers with moist filter paper and breathing holes on the lids, and they are examined by knock-down ratio or by mortality scoring at 24 hours post-injection. Normalized yields are calculated. Peptide yield means the peptide concentration in the conditioned media in units of mg/L. However, peptide yields are not always sufficient to accurately compare the strain production rate. […] A culture with a high cell density may produce a higher concentration of the peptide in the media, even though the peptide production rate of the strain is lower than another strain which has a higher production rate. Accordingly, the term “normalized yield” is created by dividing the peptide yield with the cell density in the corresponding culture and this allows a better comparison of the peptide production rate between strains. The cell density is represented by the light absorbance at 600 nm with a unit of “A” (Absorbance unit).
A housefly injection assay was performed to determine the activity of the new mutants. Adult houseflies were immobilized with CO2 for 10 minutes, and then transferred to a CO2 pan to keep immobilized. Flies with weight between 12-20 mg were picked for injection. The new mutants and Av3b control were diluted in water to proper doses for injection. Next, a 0.5 μL peptide solution was injected into each housefly at the dorsal thorax using a hand-microapplicator with 1 cc all-glass syringe with 30 gauge straight needle. The injected flies were then transferred to a 2 oz. transparent portion container with a wet #4 filter paper. Fly knock-down was assessed at 5-hours post-injection. The activity of a given new mutant was then normalized to the activity of the Av3b production strain (control), using the fly knock-down score at 5 hours.

[1] = Proteolytic resistance of Av3b mutants during production-strain fermentation (rpHPLC); format: physicochemical; conditions: for Degradation?: mutant strain fermentation at pH 6.5, 140 hours, rpHPLC; for degradation product during fermentation (HPLC): production strain fermentation at pH 6.5, rpHPLC
Description: The mutants in the table below were evaluated for stability in fermentation beer. Fermentation conditions and HPLC analysis were performed as described above. The mutant production strains were generated using YCT306 K. lactis strain. The production of mutants was performed as described in Example 2; fermentation conditions were performed using the same fermentation process described above regarding the Av3b production strain, with pH control at pH 6.5. […] To identify the mutant with proteolytic resistance, the mutant strains were grown under the same fermentation conditions as Av3b, and samples were taken throughout the fermentation process. The samples taken at 140 hour of fermentation process were analyzed in rpHPLC.

[2] = Stability of purified peptide spiked into Av3b fermentation beer (rpHPLC); format: physicochemical; conditions: for resistance to fermentation beer protease cleavage compared to Av3b: spiked into Av3b fermentation beer pH 6.5, room temperature
Description: To determine the stability of the new mutants, Av3bM19, Av3bM23, Av3bM24, Av3bM25, Av3bM27, and Av3bM28 were purified and incubated in Av3b fermentation beer. The mutants were purified by cation-exchange chromatography using a GE SP-Sephadex C-25 column. The column was first calibrated with 30 mM sodium citrate buffer at pH 3.0. Then, the culture supernatant containing the secreted mutant peptide was loaded into the column to let the mutant peptide bind to the resin. The column was then washed with 30 mM sodium citrate buffer, pH 3.0, followed by washing with 30 mM sodium acetate, pH 4.0. Next, the bound mutant peptide was eluted by 1 M or 2 M NaCl with 30 mM sodium acetate, pH 4.0. The elution was then concentrated and buffer-exchanged to 30 mM sodium acetate, pH 4.0 using a 1 kD cutoff spin concentrator.
After purification, each of the mutants, Av3bM19, Av3bM23, Av3bM24, Av3bM25, Av3bM27, and Av3bM28, were evaluated for stability by spiking them into Av3b strain fermentation beer at pH 6.5. As a negative control, Av3b was evaluated in a pH 4.0 buffer. As a positive control, purified Av3b was evaluated by spiking into the same Av3b fermentation beer at pH 6.5. All stability experiments were performed at room temperature. […] The amount of peptide remaining relative to the beginning was determined by normalizing the peak area at different time to the one at 0 hour for each treatment. The degradation trend is visualized by the bar graph of the relative remaining peptide amount trend.

KSCCPCYWGGCPWGTTCYPNGCDGPK (Av3bM20; VARIANT (1)..(26) Recombinant variant of Anemonia viridis Av3 peptide)
Activity (houseflies): No

KSCCPCYWGGCPWGQNCYPEGCSGPE (ends and bridges not checked; cysteine pairing not given here) [Av3bM101]
Degradation? [1]: Yes

TSCCPCYWGGCPWGQNCYPEGCSGPK (ends and bridges not checked; cysteine pairing not given here) [Av3bM31]
Activity (houseflies): No

KSCCPCYWPGCPWGQNCYPEGCRGPD (ends and bridges not checked; cysteine pairing not given here) [Av3bM125]
half-degradation time ([2]; Av3b production fermentation beer pH 6.5, room temperature (Example 12, FIG. 39)): 369 h | resistance to fermentation beer protease cleavage compared to Av3b [2]: dramatically improved resistance to degradation

KSCCPCYWGGCPWGQTCYPEGCSGPK (ends and bridges not checked; cysteine pairing not given here) [Av3bM22]
Activity (houseflies): No

HSCCPCYWGGCPWGQNCYPEGCSGPK (ends and bridges not checked; cysteine pairing not given here) [Av3bM28]
housefly knock-down / insecticidal activity relative to Av3b (houseflies): without a concomitant reduction in housefly knock-down activity; also recorded: insecticidal activity | Activity (houseflies): Yes

KSCCPCYWGGCPWGQNCYPEGCSGPR (ends and bridges not checked; cysteine pairing not given here) [Av3bM98]
Degradation? [1]: No | degradation product during fermentation (HPLC) [1]: did not show any degradation product; also recorded: no degradation product

KSCCPCYWGGCPWGQNCYPEGCDGPA (ends and bridges not checked; cysteine pairing not given here) [Av3bM156]
Degradation? [1]: Yes

KSCCPCYWGGCPWGQNCYPEGCSGPD (ends and bridges not checked; cysteine pairing not given here) [Av3bM100]
Degradation? [1]: Yes

KSCCPCYWGGCPWGQNCYPEGCSGPN (ends and bridges not checked; cysteine pairing not given here) [Av3bM99]
Degradation? [1]: Yes

KSCCPCYWGGCPWGQDCYPDGCDGPK (Av3bM19; VARIANT (1)..(26) Recombinant variant of Anemonia viridis Av3 peptide)
housefly knock-down / insecticidal activity relative to Av3b (houseflies): without a concomitant reduction in housefly knock-down activity; also recorded: insecticidal activity | Activity (houseflies): Yes | half-degradation time ([2]; Av3b production fermentation beer pH 6.5, room temperature (Example 11, FIG. 37)): 666 h | peptide remaining ([2]; fermentation beer pH 6.5, room temperature, 248 hours, HPLC peak area relative to starting amount): 95% | resistance to fermentation beer protease cleavage compared to Av3b [2]: greater resistance to yeast fermentation beer protease cleavage; also recorded: improved resistance to fermentation beer cleavage; also recorded: resist the degradation in Av3b fermentation beer

SSCCPCYWGGCPWGQNCYPEGCSGPK (ends and bridges not checked; cysteine pairing not given here) [Av3bM32]
Activity (houseflies): No

KSCCPCYWGGCPWGQNCYPEGCSGPA (ends and bridges not checked; cysteine pairing not given here) [Av3bM97]
Degradation? [1]: Yes

KSCCPCYWPGCPWGQNCYPEGCSGPK (ends and bridges not checked; cysteine pairing not given here) [Av3bM25]
housefly knock-down / insecticidal activity relative to Av3b (houseflies): without a concomitant reduction in housefly knock-down activity; also recorded: insecticidal activity | Activity (houseflies): Yes

KSCCPCYWGGCPWGQNCYPEGCSGPQ (ends and bridges not checked; cysteine pairing not given here) [Av3bM102]
Degradation? [1]: Yes

KSCCPCYWGGCPWGQNCYPEGCDGPT (ends and bridges not checked; cysteine pairing not given here) [Av3bM157]
Degradation? [1]: Yes

KSCCPCYWAGCPWGQNCYPEGCSGPK (ends and bridges not checked; cysteine pairing not given here) [Av3bM27]
housefly knock-down / insecticidal activity relative to Av3b (houseflies): behaved like Av3b; also recorded: insecticidal activity comparable to Av3b | Activity (houseflies): Yes

KSCCPCYWGGCPWGQNCYPEGCSGPKG [Av3bM148]
Degradation? [1]: No | degradation product during fermentation (HPLC) [1]: did not show any degradation product; also recorded: without apparent degradation products

KSCCPCYWGGCPWGQNCYPEGCSGPH (ends and bridges not checked; cysteine pairing not given here) [Av3bM104]
Degradation? [1]: Yes

KSCCPCYWGGCPWGQNCYPEGCDGPG (ends and bridges not checked; cysteine pairing not given here) [Av3bM171]
Degradation? [1]: Yes

KSCCPCYWGGCPWGQNCYPEGCSGPKVI [Av3bM168]
Degradation? [1]: Yes

KSCCPCYWGGCPWGQNCYPNGCSGPK (Av3bM23; VARIANT (1)..(26) Recombinant variant of Anemonia viridis Av3 peptide)
housefly knock-down / insecticidal activity relative to Av3b (houseflies): without a concomitant reduction in housefly knock-down activity; also recorded: insecticidal activity | Activity (houseflies): Yes

KSCCPCYWGGCPWGQNCYPEGCDGP (ends and bridges not checked; cysteine pairing not given here) [Av3bM172]
Degradation? [1]: Yes

SSCCPCYWGGCPWGQNCYPEGCSGPT (ends and bridges not checked; cysteine pairing not given here) [Av3bM33]
Activity (houseflies): No

KSCCPCYWPPCPWGQNCYPEGCSGPK (ends and bridges not checked; cysteine pairing not given here) [Av3bM26]
Activity (houseflies): No

QSCCPCYWGGCPWGQNCYPEGCSGPH (ends and bridges not checked; cysteine pairing not given here) [Av3bM30]
Activity (houseflies): No

KSCCPCYWGGCPWGQNCYPEGCTGPG (ends and bridges not checked; cysteine pairing not given here) [Av3bM169]
Degradation? [1]: Yes

KSCCPCYWGGCPWGQNCYPEGCSGGV (ends and bridges not checked; cysteine pairing not given here) [Av3bM146]
Degradation? [1]: Yes

KSCCPCYWGGCPWGQNCYPEGCSGPT (ends and bridges not checked; cysteine pairing not given here) [Av3bM111]
Degradation? [1]: Yes

KSCCPCYWGGCPWGTNCYPEGCSGPK (ends and bridges not checked; cysteine pairing not given here) [Av3bM21]
Activity (houseflies): No

KSCCPCYWGGCPWGQNCYPEGCSGRV (ends and bridges not checked; cysteine pairing not given here) [Av3bM147]
Degradation? [1]: Yes
